Reference: patent US20140295452A1 (PIERRE FABRE MEDICAMENT, published 2014)

Tests used:
[1] = target: recombinant human c-Met-Fc protein (R&D Systems, cat. 358MT) (human) (UniProt P08581); assay: displacement of [125I]-HGF (200 pM) from c-Met-Fc immobilized on protein A FlashPlate
[2] = target: T1, recombinant human c-Met-Fc protein (R&D Systems, cat. 358MT) (human, UniProt P08581 25-932); assay: as above
T1 construct: extracellular domain; Bought reagent (R&D Systems 358MT / 358-MT/CF); also called rh c-Met-Fc; HGF-R/Fc chimera protein; not shown: Fc part; polyhistidine tag implied by capture on an anti-polyhistidine Mab; not described

[3] = target: T2, human c-Met receptor, native, on tumor cells and tumor tissue (human, UniProt P08581 25-1390); assay: IHC on paraffin-embedded human breast and stomach tumor tissues
T2 construct: whole, on cells; Endogenous c-Met of human tumor cell lines, U87-MG xenografts and human tumor tissues; also called native c-Met; native receptor on tumor cells

[4] = target: T1, recombinant human c-Met-Fc protein (R&D …); assay: Biacore, c-Met-Fc captured by anti-polyhistidine Mab, 224D10 injected second at 20 µg/ml

T1 sequence (P08581 25-932): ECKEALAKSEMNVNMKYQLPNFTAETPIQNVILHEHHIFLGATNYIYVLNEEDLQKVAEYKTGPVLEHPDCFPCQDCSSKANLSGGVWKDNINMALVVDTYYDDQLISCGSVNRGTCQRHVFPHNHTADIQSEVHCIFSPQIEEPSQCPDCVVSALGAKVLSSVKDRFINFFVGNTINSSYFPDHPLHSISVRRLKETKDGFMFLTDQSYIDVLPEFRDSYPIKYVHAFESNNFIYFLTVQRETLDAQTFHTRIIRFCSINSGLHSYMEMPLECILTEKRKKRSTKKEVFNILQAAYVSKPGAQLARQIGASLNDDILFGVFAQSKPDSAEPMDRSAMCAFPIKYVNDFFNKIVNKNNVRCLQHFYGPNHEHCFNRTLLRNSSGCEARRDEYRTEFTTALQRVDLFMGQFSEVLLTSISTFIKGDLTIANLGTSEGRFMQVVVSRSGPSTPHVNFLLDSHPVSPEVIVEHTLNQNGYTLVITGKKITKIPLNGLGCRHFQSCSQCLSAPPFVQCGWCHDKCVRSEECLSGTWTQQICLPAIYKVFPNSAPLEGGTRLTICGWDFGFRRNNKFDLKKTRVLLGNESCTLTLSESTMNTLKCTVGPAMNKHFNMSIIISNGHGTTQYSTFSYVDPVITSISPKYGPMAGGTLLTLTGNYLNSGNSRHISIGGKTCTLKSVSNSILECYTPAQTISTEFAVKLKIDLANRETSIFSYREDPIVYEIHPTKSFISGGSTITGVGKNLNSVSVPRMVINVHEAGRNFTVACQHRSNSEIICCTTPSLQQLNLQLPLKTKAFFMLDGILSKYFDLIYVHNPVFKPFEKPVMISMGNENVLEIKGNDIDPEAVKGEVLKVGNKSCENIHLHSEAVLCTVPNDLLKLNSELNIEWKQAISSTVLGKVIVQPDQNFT
Sequence of recombinant human c-Met-Fc protein (R&D Systems, cat. 358MT) (human) (P08581 25-932): as above
T2 sequence (P08581 25-1390): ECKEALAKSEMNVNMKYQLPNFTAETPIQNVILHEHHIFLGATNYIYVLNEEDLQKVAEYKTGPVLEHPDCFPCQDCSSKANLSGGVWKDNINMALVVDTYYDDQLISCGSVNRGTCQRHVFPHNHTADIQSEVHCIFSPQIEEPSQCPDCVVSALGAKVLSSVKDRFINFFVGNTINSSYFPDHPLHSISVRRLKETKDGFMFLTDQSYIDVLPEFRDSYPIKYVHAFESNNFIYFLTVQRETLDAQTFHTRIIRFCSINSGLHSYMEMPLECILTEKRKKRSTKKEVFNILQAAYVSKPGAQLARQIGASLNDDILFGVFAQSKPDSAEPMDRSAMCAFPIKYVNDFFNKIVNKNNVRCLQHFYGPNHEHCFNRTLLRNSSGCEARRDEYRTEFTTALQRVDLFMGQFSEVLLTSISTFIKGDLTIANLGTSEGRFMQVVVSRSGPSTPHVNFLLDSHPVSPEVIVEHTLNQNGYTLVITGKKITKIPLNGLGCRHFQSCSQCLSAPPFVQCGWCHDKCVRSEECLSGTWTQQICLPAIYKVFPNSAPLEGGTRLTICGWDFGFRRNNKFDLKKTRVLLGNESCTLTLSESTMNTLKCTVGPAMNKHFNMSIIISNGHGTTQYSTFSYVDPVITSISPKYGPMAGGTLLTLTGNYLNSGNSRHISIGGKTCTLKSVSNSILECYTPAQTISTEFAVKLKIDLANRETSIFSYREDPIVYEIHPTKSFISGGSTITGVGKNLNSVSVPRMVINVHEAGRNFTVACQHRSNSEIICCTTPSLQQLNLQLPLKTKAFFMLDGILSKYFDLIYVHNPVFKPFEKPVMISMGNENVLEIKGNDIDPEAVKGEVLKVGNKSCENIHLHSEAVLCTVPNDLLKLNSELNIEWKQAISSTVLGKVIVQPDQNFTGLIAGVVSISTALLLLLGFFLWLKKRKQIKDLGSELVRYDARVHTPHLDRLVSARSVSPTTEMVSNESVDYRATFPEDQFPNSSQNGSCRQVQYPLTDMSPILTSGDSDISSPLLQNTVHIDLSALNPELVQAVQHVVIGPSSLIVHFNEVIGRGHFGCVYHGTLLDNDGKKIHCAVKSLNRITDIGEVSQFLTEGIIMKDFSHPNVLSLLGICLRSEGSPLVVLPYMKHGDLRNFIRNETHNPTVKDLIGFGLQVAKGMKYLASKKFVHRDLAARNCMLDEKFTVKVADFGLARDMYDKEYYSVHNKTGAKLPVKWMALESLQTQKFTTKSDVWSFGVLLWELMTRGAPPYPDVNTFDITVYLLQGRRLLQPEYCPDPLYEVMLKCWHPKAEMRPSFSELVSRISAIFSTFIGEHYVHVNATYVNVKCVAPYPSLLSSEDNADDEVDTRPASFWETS

Molecule: 5D5 anti-c-Met Mab (Genentech, hybridoma at the ATCC) (antibody)
- IC50 [1]: 4.4 nM

B1: 11E1 anti-c-Met Mab (antibody, V domains shown)
VH: QVQLQQSGAELAKPGASVKMSCKASGYTFTSYWMNWVKQRPGQGLEWIGYINPTTGSTDYNQKLKDKATLTADKSSNTAYMQLSSLTSEDSAVYYCAIGGYGSWFAYWGQGTLVTVSA
VL: QIVLTQSPAIMSASPGEKVTLTCSASSSVSSTYLYWYQQKPGSSPKLWIYTTSILASGVPARFSGSGSGTSYSLTISSMETEDAASYFCHQWSSYPFTFGSGTKLDIK
- IC50 [2]: 42 nM

B2: murine 224D10 monoclonal antibody (antibody, V domains shown)
VH: DLQLQESGPGLVKPSQSLSLTCSVTGYSITSAYFWSWIRQFPGNKLEWMGFINYDGTNNYNPSLKNRISITRDTSKNQFFLRLNSVTTDDTATYYCTRDRTFAYWGQGTLVTVSA
VL: DIVLTQSPATLSVTPGDRVSLSCRASQRIYNYLHWYQQKSHESPRLLIKYASQSISGIPSRFSGSGSGTDFILTINSVETEDFGMYFCQQSNSWPLTFGAGTKLELR
notes: Whole murine monoclonal antibody secreted by hybridoma CNCM I-3949; a murine IgG1 (9G4) served as its isotype control; also called m224D10; 224D10 Mab
- binding result [3]: binds
- binding result [4]: binds
